Data published in US20170101476A1 (Novartis, published 2017).
One block for each binder: values may come before it.

Key:
Experiment in all cases: cell-based or functional assay
Human CXCR2 [1] = target: T1, Human CXCR2 (human, UniProt P25025 1-360)
T1 sequence: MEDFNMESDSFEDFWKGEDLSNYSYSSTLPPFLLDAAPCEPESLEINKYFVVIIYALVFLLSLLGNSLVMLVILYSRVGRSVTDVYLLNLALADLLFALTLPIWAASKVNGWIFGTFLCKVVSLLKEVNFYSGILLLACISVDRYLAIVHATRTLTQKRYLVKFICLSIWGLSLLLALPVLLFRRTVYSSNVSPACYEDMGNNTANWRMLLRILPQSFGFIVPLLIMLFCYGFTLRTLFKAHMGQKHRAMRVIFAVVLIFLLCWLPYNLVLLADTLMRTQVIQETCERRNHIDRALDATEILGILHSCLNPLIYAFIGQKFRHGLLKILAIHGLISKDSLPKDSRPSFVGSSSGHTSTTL

Human CXCR2 [2] = target: T1, Human CXCR2; remark: listed apart in the source
Cynomolgus CXCR2 [3] = target: T2, Cynomolgus CXCR2 (cynomolgus, UniProt Q28519 3-353 (rhesus entry))
T2 chain: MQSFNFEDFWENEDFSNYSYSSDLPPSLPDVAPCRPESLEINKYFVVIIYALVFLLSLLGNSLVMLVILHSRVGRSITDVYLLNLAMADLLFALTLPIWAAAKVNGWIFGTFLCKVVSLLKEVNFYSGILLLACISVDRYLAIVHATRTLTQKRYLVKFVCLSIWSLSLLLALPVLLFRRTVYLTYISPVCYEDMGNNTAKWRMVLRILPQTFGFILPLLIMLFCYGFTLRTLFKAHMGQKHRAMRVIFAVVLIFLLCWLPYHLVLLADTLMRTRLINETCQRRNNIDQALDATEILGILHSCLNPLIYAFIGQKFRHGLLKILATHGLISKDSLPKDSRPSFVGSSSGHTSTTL

Human CXCR2 [4] = target: T1, Human CXCR2; remark: listed apart in the source
Cynomolgus CXCR2 [5] = target: T2, Cynomolgus CXCR2

[35S]GTPγS % inhibition of max, GRO-α (Human CXCR2 [1]): 100%
[35S]GTPγS accumulation IC50, GRO-α (Human CXCR2 [1]): 1.01 nM
FLIPR IC50, GRO-α induced intracellular calcium release (Human CXCR2 [2]): 17.9 nM
FLIPR IC50, GRO-α induced intracellular calcium release (Cynomolgus CXCR2 [3]): 4.46 nM
Human Chemotaxis IC50 (vs rhGROα) (Human CXCR2 [4]): 0.145 nM
Human WBSC IC50 (vs rhGROα) (Human CXCR2 [4]): 0.345 nM
Cynomologus WBSC IC50 (vs rhGROα) (Cynomolgus CXCR2 [5]): 0.42 nM
B1: CXCR20033 (bispecific antibody, not shown: small tags and cut ends)
chain: EVQLVESGGGLVQPGGSLRLSCVASGRIFSSNAMGWFRQAPGKEREFVAAITWRSGGSAYYADSAKGRFTISRDNAKNTVYLQMNSLKPEDTAVYYCAAGGSSWLSFPPDYWGQGTQVTVSSGGGGSGGGGSGGGGSGGGGSGGGGSGGGGSGGGGSEVQLVESGGELVQPGGSLRLSCAASGSILTINAMGWYRQAPGKQRELVVRRTRGGSTTYQDSVKGRFTISADIAKKTMYLQMNSLKPEDTAVYYCMLDDRGGVYWGQGTQVTVSS

[35S]GTPγS % inhibition of max, GRO-α (Human CXCR2 [1]): 100%
[35S]GTPγS accumulation IC50, GRO-α (Human CXCR2 [1]): 28.5 nM
FLIPR IC50, GRO-α induced intracellular calcium release (Human CXCR2 [2]): 9.34 nM
FLIPR IC50, GRO-α induced intracellular calcium release (Cynomolgus CXCR2 [3]): 8.64 nM
B2: CXCR20022 (VHH, not shown: small tags and cut ends)
chain: EVQLVESGGGLVQAGGSLRLSCAASGRTFSDYAMGWFRQAPGKEREFVAAITWNGGRVFYTASVKGRFTISRDNAKNTMYLQMNSLKPEDTAVYYCAADKDRRTDYLGHPVAYWGQGTQVTVSSGGGGSGGGGSGGGGSGGGGSGGGGSGGGGSGGGGSEVQLVESGGGLVQAGGSLRLSCAASGRTFSDYAMGWFRQAPGKEREFVAAITWNGGRVFYTASVKGRFTISRDNAKNTMYLQMNSLKPEDTAVYYCAADKDRRTDYLGHPVAYWGQGTQVTVSS

[35S]GTPγS % inhibition of max, GRO-α (Human CXCR2 [1]): 100%
[35S]GTPγS accumulation IC50, GRO-α (Human CXCR2 [1]): 0.809 nM
FLIPR IC50, GRO-α induced intracellular calcium release (Human CXCR2 [2]): 12.3 nM
FLIPR IC50, GRO-α induced intracellular calcium release (Cynomolgus CXCR2 [3]): 9.1 nM
Human Chemotaxis IC50 (vs rhGROα) (Human CXCR2 [4]): 0.14 nM
Human WBSC IC50 (vs rhGROα) (Human CXCR2 [4]): 0.165 nM
Cynomologus WBSC IC50 (vs rhGROα) (Cynomolgus CXCR2 [5]): 0.26 nM
B3: CXCR20026 (bispecific antibody, not shown: small tags and cut ends)
chain: EVQLVESGGGLVQPGGSLRLSCVASGRIFSSNAMGWFRQAPGKEREFVAAITWRSGGSAYYADSAKGRFTISRDNAKNTVYLQMNSLKPEDTAVYYCAAGGSSWLSFPPDYWGQGTQVTVSSGGGGSGGGGSGGGGSGGGGSGGGGSGGGGSGGGGSEVQLVESGGGLVQAGESLRLSCAASGSTFDFKVMGWYRQPPGKQREGVAAIRLSGNMHYAESVKGRFTISKANAKNTVYLQMNSLRPEDTAVYYCKVNIRGQDYWGQGTQVTVSS

[35S]GTPγS % inhibition of max, ENA-78 (Human CXCR2 [1]): 100%
[35S]GTPγS % inhibition of max, GRO-α (Human CXCR2 [1]): 100%
[35S]GTPγS % inhibition of max, IL-8 (Human CXCR2 [1]): 100%
[35S]GTPγS accumulation IC50, ENA-78 (Human CXCR2 [1]): 0.787 nM
[35S]GTPγS accumulation IC50, GRO-α (Human CXCR2 [1]): 0.551 nM
[35S]GTPγS accumulation IC50, IL-8 (Human CXCR2 [1]): 0.827 nM
FLIPR IC50, GRO-α induced intracellular calcium release (Human CXCR2 [2]): 7.32 nM
FLIPR IC50, GRO-α induced intracellular calcium release (Cynomolgus CXCR2 [3]): 2.31 nM
B4: CXCR20021 (bispecific antibody, not shown: small tags and cut ends)
chain: EVQLVESGGGLVQAGESLRLSCAASGSTFDFKVMGWYRQPPGKQREGVAAIRLSGNMHYAESVKGRFTISKANAKNTVYLQMNSLRPEDTAVYYCKVNIRGQDYWGQGTQVTVSSGGGGSGGGGSGGGGSGGGGSGGGGSGGGGSGGGGSEVQLVESGGGLVQPGGSLRLSCVASGRIFSSNAMGWFRQAPGKEREFVAAITWRSGGSAYYADSAKGRFTISRDNAKNTVYLQMNSLKPEDTAVYYCAAGGSSWLSFPPDYWGQGTQVTVSS

[35S]GTPγS % inhibition of max, ENA-78 (Human CXCR2 [1]): 100%
[35S]GTPγS % inhibition of max, IL-8 (Human CXCR2 [1]): 100%
[35S]GTPγS accumulation IC50, ENA-78 (Human CXCR2 [1]): 0.116 nM
[35S]GTPγS accumulation IC50, IL-8 (Human CXCR2 [1]): 0.997 nM
FLIPR IC50, GRO-α induced intracellular calcium release (Human CXCR2 [2]): 14.7 nM
FLIPR IC50, GRO-α induced intracellular calcium release (Cynomolgus CXCR2 [3]): 3.65 nM
B5: CXCR20032 (bispecific antibody, not shown: small tags and cut ends)
chain: EVQLVESGGELVQPGGSLRLSCAASGSILTINAMGWYRQAPGKQRELVVRRTRGGSTTYQDSVKGRFTISADIAKKTMYLQMNSLKPEDTAVYYCMLDDRGGVYWGQGTQVTVSSGGGGSGGGGSGGGGSGGGGSGGGGSGGGGSGGGGSEVQLVESGGGLVQAGGSLRLSCAASGRTFSDYAMGWFRQAPGKEREFVAAITWNGGRVFYTASVKGRFTISRDNAKNTMYLQMNSLKPEDTAVYYCAADKDRRTDYLGHPVAYWGQGTQVTVSS

[35S]GTPγS % inhibition of max, GRO-α (Human CXCR2 [1]): 100%
[35S]GTPγS accumulation IC50, GRO-α (Human CXCR2 [1]): 1.38 nM
FLIPR IC50, GRO-α induced intracellular calcium release (Human CXCR2 [2]): 21.9 nM
FLIPR IC50, GRO-α induced intracellular calcium release (Cynomolgus CXCR2 [3]): 17 nM
Human WBSC IC50 (vs rhGROα) (Human CXCR2 [4]): 0.43 nM
Cynomologus WBSC IC50 (vs rhGROα) (Cynomolgus CXCR2 [5]): 1.72 nM
B6: CXCR20028 (other, not shown: small tags and cut ends)
chain: EVQLVESGGGLVQPGGSLRLSCVASGSIVRINTMGWYRQTPGKQRELVADITSGGNINYIDAVKGRFTISRDNTKNTVYLQMNSLKPEDTAVYYCNAEIVVLVGVWTQRARTGNYWGQGTQVTVSSGGGGSGGGGSGGGGSGGGGSGGGGSGGGGSGGGGSEVQLVESGGGLVQAGGSLTLSCAVSGSTFRINTMGWYRRAPGKQRELVAARDRGGYINYVDSVKGRFTVSRDNAKPTMYLQMNSLKPEDTAVYYCHAGTQDRTGRNFDRWGQGTQVTVSS
